{"source": "patent US20060257938A1", "about": "“Method of screening for drugs that block ligand binding to a lipid binding protein” (priority 2005, published 2006)", "molecules": {"B1": {"name": "72K (protein, listed as Rattus norvegicus)", "chain": "AFDGTWKVDRNENYEKFMEKMGINVVKRKLGAHDNLKLTITQEGNKFTVKESSNFRNIDVVFELGVDFAYSKADGTELTGTWTMEGNKLVGKFKRVDNGKELIAVREISGNELIQTYTYEGVEAKRIFKKE", "modifications": "PEPTIDE (1)...(131) wild-type rat intestinal fatty acid binding protein"}, "B2": {"name": "73K, 72A (protein, listed as Rattus norvegicus)", "chain": "B1 chain with K72A, A73K", "modifications": "PEPTIDE (1)...(131) wild-type rat intestinal fatty acid binding protein"}, "B3": {"name": "104F3, 72A (protein, listed as Rattus norvegicus)", "chain": "B1 chain with K72A, A104F", "modifications": "PEPTIDE (1)...(131) wild-type rat intestinal fatty acid binding protein"}, "B4": {"name": "72V (protein, listed as Rattus norvegicus)", "chain": "B1 chain with K72V", "modifications": "PEPTIDE (1)...(131) wild-type rat intestinal fatty acid binding protein"}, "B5": {"name": "72N (protein, listed as Rattus norvegicus)", "chain": "B1 chain with K72N", "modifications": "PEPTIDE (1)...(131) wild-type rat intestinal fatty acid binding protein"}, "B6": {"name": "72S (protein, listed as Rattus norvegicus)", "chain": "B1 chain with K72S", "modifications": "PEPTIDE (1)...(131) wild-type rat intestinal fatty acid binding protein"}, "B7": {"name": "73L, 72A (protein, listed as Rattus norvegicus)", "chain": "B1 chain with K72A, A73L", "modifications": "PEPTIDE (1)...(131) wild-type rat intestinal fatty acid binding protein"}, "B8": {"name": "73F, 72A (protein, listed as Rattus norvegicus)", "chain": "B1 chain with K72A, A73F", "modifications": "PEPTIDE (1)...(131) wild-type rat intestinal fatty acid binding protein"}, "B9": {"name": "104F1, 72A (protein, listed as Rattus norvegicus)", "chain": "B1 chain with K72A, A104F", "modifications": "PEPTIDE (1)...(131) wild-type rat intestinal fatty acid binding protein"}, "B10": {"name": "72M (protein, listed as Rattus norvegicus)", "chain": "B1 chain with K72M", "modifications": "PEPTIDE (1)...(131) wild-type rat intestinal fatty acid binding protein"}, "B11": {"name": "72Y (protein, listed as Rattus norvegicus)", "chain": "B1 chain with K72Y", "modifications": "PEPTIDE (1)...(131) wild-type rat intestinal fatty acid binding protein"}, "B12": {"name": "73E, 72A (protein, listed as Rattus norvegicus)", "chain": "B1 chain with K72A, A73E", "modifications": "PEPTIDE (1)...(131) wild-type rat intestinal fatty acid binding protein"}, "B13": {"name": "73H, 72A (protein, listed as Rattus norvegicus)", "chain": "B1 chain with K72A, A73H", "modifications": "PEPTIDE (1)...(131) wild-type rat intestinal fatty acid binding protein"}, "B14": {"name": "73N, 72A (protein, listed as Rattus norvegicus)", "chain": "B1 chain with K72A, A73N", "modifications": "PEPTIDE (1)...(131) wild-type rat intestinal fatty acid binding protein"}, "B15": {"name": "72R (protein, listed as Rattus norvegicus)", "chain": "B1 chain with K72R", "modifications": "PEPTIDE (1)...(131) wild-type rat intestinal fatty acid binding protein"}, "B16": {"name": "73G, 72A (protein, listed as Rattus norvegicus)", "chain": "B1 chain with K72A, A73G", "modifications": "PEPTIDE (1)...(131) wild-type rat intestinal fatty acid binding protein"}, "B17": {"name": "72Q (protein, listed as Rattus norvegicus)", "chain": "B1 chain with K72Q", "modifications": "PEPTIDE (1)...(131) wild-type rat intestinal fatty acid binding protein"}}, "note": "Substitutions are numbered along the chain they refer to. Several values for one entry are separate records, joined by “and”; a condition that tells them apart may be missing. Equal entries are not always repeated."}
{"test": "Probe fluorescence ratio response to palmitic acid relative to ADIFAB2", "format": "binding", "details": "response relative to ADIFAB2", "procedure,_shortened": "(§1)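 Each fatty acid's response was expressed relative to ADIFAB2, the rI-FABP-L72A probe, as ΔR/ΔRreference. ΔR is the change in the background-corrected two-wavelength intensity ratio R=Fλ1/Fλ2 from its analyte-free baseline R0. Emission was read near about 420-480 nm for unbound and about 495-580 nm for FFA-bound probe.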"}
{"molecule": "B1", "DR/DR PA": 0.13}
{"molecule": "B2", "DR/DR PA": 0.15}
{"molecule": "B3", "DR/DR PA": 0.25}
{"molecule": "B4", "DR/DR PA": 0.16}
{"molecule": "B5", "DR/DR PA": "0.44 and 0.441"}
{"molecule": "B6", "DR/DR PA": 0.68}
{"molecule": "B7", "DR/DR PA": "0.25 and 0.251"}
{"molecule": "B8", "DR/DR PA": "1.13 and 1.128"}
{"molecule": "B9", "DR/DR PA": 0.27}
{"molecule": "B10", "DR/DR PA": 1.32}
{"molecule": "B11", "DR/DR PA": "0.41 and 0.415"}
{"molecule": "B12", "DR/DR PA": 0.13}
{"molecule": "B13", "DR/DR PA": 0.16}
{"molecule": "B14", "DR/DR PA": 0.39}
{"molecule": "B15", "DR/DR PA": 0.26}
{"molecule": "B16", "DR/DR PA": 0.41}
{"molecule": "B17", "DR/DR PA": "0.99 and 0.989"}
{"test": "Probe fluorescence ratio response to linolenic acid relative to ADIFAB2", "format": "binding", "details": "response relative to ADIFAB2", "procedure,_shortened": "as §1"}
{"molecule": "B1", "DR/DR LNA": 0.31}
{"molecule": "B2", "DR/DR LNA": 0.28}
{"molecule": "B3", "DR/DR LNA": 0.45}
{"molecule": "B4", "DR/DR LNA": 0.15}
{"molecule": "B5", "DR/DR LNA": "0.70 and 0.702"}
{"molecule": "B6", "DR/DR LNA": 0.71}
{"molecule": "B7", "DR/DR LNA": "0.34 and 0.338"}
{"molecule": "B8", "DR/DR LNA": "1.86 and 1.861"}
{"molecule": "B9", "DR/DR LNA": 0.42}
{"molecule": "B10", "DR/DR LNA": 1.35}
{"molecule": "B11", "DR/DR LNA": "0.59 and 0.594"}
{"molecule": "B12", "DR/DR LNA": 0.14}
{"molecule": "B13", "DR/DR LNA": 0.25}
{"molecule": "B14", "DR/DR LNA": 0.47}
{"molecule": "B15", "DR/DR LNA": 0.49}
{"molecule": "B16", "DR/DR LNA": 0.53}
{"molecule": "B17", "DR/DR LNA": "0.73 and 0.735"}
{"test": "Probe fluorescence ratio response to linoleic acid relative to ADIFAB2", "format": "binding", "details": "response relative to ADIFAB2", "procedure,_shortened": "as §1"}
{"molecule": "B1", "DR/DR LA": 0.26}
{"molecule": "B2", "DR/DR LA": 0.29}
{"molecule": "B3", "DR/DR LA": 0.50}
{"molecule": "B4", "DR/DR LA": 0.21}
{"molecule": "B5", "DR/DR LA": 0.77}
{"molecule": "B6", "DR/DR LA": 0.73}
{"molecule": "B7", "DR/DR LA": "0.33 and 0.325"}
{"molecule": "B8", "DR/DR LA": "1.23 and 1.234"}
{"molecule": "B9", "DR/DR LA": 0.47}
{"molecule": "B10", "DR/DR LA": 1.46}
{"molecule": "B11", "DR/DR LA": "0.64 and 0.637"}
{"molecule": "B12", "DR/DR LA": 0.19}
{"molecule": "B13", "DR/DR LA": 0.18}
{"molecule": "B14", "DR/DR LA": 0.43}
{"molecule": "B15", "DR/DR LA": 0.51}
{"molecule": "B16", "DR/DR LA": 0.56}
{"molecule": "B17", "DR/DR LA": "0.76 and 0.762"}
{"test": "Probe fluorescence ratio response to arachidonic acid relative to ADIFAB2", "format": "binding", "details": "Arachidonic acid; response relative to ADIFAB2", "procedure,_shortened": "as §1"}
{"molecule": "B1", "DR/DR AA": 0.26}
{"molecule": "B2", "DR/DR AA": 0.30}
{"molecule": "B4", "DR/DR AA": 0.18}
{"molecule": "B5", "DR/DR AA": 0.65}
{"molecule": "B6", "DR/DR AA": 0.65}
{"molecule": "B7", "DR/DR AA": 0.73}
{"molecule": "B8", "DR/DR AA": 1.21}
{"molecule": "B10", "DR/DR AA": 1.31}
{"molecule": "B11", "DR/DR AA": 0.35}
{"molecule": "B12", "DR/DR AA": 0.15}
{"molecule": "B13", "DR/DR AA": 0.15}
{"molecule": "B14", "DR/DR AA": 0.48}
{"molecule": "B15", "DR/DR AA": 0.45}
{"molecule": "B16", "DR/DR AA": 0.46}
{"molecule": "B17", "DR/DR AA": 0.77}
{"test": "Probe fluorescence ratio response to arachidonic acid relative to ADIFAB2", "format": "binding", "details": "arachidonic acid; response relative to ADIFAB2", "procedure,_shortened": "as §1"}
{"molecule": "B3", "DR/DR AA": 0.71}
{"molecule": "B5", "DR/DR AA": 0.652}
{"molecule": "B7", "DR/DR AA": 0.733}
{"molecule": "B8", "DR/DR AA": 1.208}
{"molecule": "B9", "DR/DR AA": 0.66}
{"molecule": "B11", "DR/DR AA": 0.346}
{"molecule": "B17", "DR/DR AA": 0.770}
{"test": "Probe fluorescence ratio response to oleic acid relative to ADIFAB2", "format": "binding", "details": "response relative to ADIFAB2", "procedure,_shortened": "as §1"}
{"molecule": "B1", "DR/DR OA": 0.19}
{"molecule": "B2", "DR/DR OA": 0.28}
{"molecule": "B3", "DR/DR OA": 0.47}
{"molecule": "B4", "DR/DR OA": 0.20}
{"molecule": "B5", "DR/DR OA": "0.83 and 0.831"}
{"molecule": "B6", "DR/DR OA": 0.62}
{"molecule": "B7", "DR/DR OA": 0.38}
{"molecule": "B8", "DR/DR OA": "0.73 and 0.728"}
{"molecule": "B9", "DR/DR OA": 0.45}
{"molecule": "B10", "DR/DR OA": 1.49}
{"molecule": "B11", "DR/DR OA": "0.56 and 0.557"}
{"molecule": "B12", "DR/DR OA": 0.14}
{"molecule": "B13", "DR/DR OA": 0.13}
{"molecule": "B14", "DR/DR OA": 0.41}
{"molecule": "B15", "DR/DR OA": 0.45}
{"molecule": "B16", "DR/DR OA": 0.52}
{"molecule": "B17", "DR/DR OA": "0.78 and 0.777"}
